The record followed here is doi:10.1101/2025.08.05.668778 (bioRxiv, 2025).

The target in one series is T1, factor H (intact) (human, UniProt P08603 19-1231).
T1 construct: also called FH; intact FH; source: bought: Complement Technology
The series is described as follows: ELISA; M, Enn or FbaA protein coated on wells (20 μg/ml in PBS pH 7.2, overnight 4 °C); soluble intact factor H 10 μg/ml, 1 h, RT; bound FH detected with mouse monoclonal anti-human FH and HRP anti-mouse IgG; uncoated wells subtracted; values normalized to wild type. To be noted: both partners purified. Background: ELISA stands for enzyme-linked immunosorbent assay.

The series “crystal structure” deals with the molecule itself. The series is described as follows: crystal structure.

T1 sequence (P08603 19-1231): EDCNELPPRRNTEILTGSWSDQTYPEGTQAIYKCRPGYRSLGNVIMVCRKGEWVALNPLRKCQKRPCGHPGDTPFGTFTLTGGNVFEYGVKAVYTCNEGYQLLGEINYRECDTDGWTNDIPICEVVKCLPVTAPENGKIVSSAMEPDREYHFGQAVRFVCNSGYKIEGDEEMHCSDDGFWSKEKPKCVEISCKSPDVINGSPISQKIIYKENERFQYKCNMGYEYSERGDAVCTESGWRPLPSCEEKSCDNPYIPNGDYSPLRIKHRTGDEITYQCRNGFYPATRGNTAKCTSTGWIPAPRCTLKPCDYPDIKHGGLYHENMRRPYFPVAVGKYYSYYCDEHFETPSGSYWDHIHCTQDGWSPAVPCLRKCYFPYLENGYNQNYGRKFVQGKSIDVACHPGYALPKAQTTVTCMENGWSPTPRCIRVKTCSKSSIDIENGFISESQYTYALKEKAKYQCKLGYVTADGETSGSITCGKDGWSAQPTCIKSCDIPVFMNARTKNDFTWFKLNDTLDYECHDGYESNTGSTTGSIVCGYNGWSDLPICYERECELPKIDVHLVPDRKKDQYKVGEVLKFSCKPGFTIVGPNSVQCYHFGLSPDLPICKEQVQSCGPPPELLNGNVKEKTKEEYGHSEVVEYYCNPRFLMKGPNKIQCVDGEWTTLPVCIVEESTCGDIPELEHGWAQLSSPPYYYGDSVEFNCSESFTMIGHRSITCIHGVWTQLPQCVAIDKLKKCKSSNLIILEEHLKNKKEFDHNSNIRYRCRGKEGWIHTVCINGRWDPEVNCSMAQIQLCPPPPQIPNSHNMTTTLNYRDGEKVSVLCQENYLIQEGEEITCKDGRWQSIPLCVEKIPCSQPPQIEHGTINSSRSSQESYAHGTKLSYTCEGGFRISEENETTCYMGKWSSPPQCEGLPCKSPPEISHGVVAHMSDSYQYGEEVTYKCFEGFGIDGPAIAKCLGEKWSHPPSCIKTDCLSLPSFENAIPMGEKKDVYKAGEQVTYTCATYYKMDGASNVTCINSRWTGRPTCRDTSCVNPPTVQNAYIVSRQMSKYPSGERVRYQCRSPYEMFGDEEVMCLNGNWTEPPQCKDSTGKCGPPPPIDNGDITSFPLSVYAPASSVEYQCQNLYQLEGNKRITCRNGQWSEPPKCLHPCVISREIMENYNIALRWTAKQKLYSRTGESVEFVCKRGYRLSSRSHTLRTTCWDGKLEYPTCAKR

B1: M5 protein, intact wild type (aa 43–377) (natural protein)
chain: AVTRGTINDPQRAKEALDKYELENHDLKTKNEGLKTENEGLKTENEGLKTENEGLKTEKKEHEAENDKLKQQRDTLSTQKETLEREVQNTQYNNETLKIKNGDLTKELNKTRQELANKQQESKENEKALNELLEKTVKDKIAKEQENKETIGTLKKILDETVKDKIAKEQENKETIGTLKKILDETVKDKLAKEQKSKQNIGALKQELAKKDEANKISDASRKGLRRDLDASREAKKQLEAEHQKLEEQNKISEASRKGLRRDLDASREAKKQLEAEQQKLEEQNKISEASRKGLRRDLDASREAKKQVEKALEEANSKLAALEKLNKELEESKK
notes: source: E. coli BL21 (Gold), purified; not shown: His6, C-terminal, kept
As for B1, in the series with factor H (intact), the binding result is listed as “binds”.

B2: M6 protein fragment (aa 74–157) (domain or fragment)
chain: NDKLTTENNNLTDQNKNLTTENKNLTDQNKNLTTENKNLTDQNKNLTTENKELKAEENRLTTENKGLTKKLSEAEEEAANKERE
notes: source: E. coli BL21 (Gold), purified
Turning to B2, the stoichiometry N (in general, a count of units in the complex or per binding partner) in the series “crystal structure” came to 2.

B3: M6 protein, intact wild type (aa 43–452) (natural protein)
chain: RVFPRGTVENPDKARELLNKYDVENSMLQANNDKLTTENNNLTDQNKNLTTENKNLTDQNKNLTTENKNLTDQNKNLTTENKELKAEENRLTTENKGLTKKLSEAEEEAANKERENKEAIGTLKKTLDETVKDKIAKEQESKETIGTLKKTLDETVKDKIAKEQESKETIGTLKKTLDETVKDKIAKEQESKETIGTLKKILDETVKDKIAREQKSKQDIGALKQELAKKDEGNKVSEASRKGLRRDLDASREAKKQVEKDLANLTAELDKVKEEKQISDASRQGLRRDLDASREAKKQVEKALEEANSKLAALEKLNKELEESKKLTEKEKAELQAKLEAEAKALKEQLAKQAEELAKLRAGKASDSQTPDAKPGNKVVPGKGQAPQAGTKPNQNKAPMKETKRQLPST
notes: as for B1
Regarding B3, the binding result with factor H (intact) was “binds”.

B4: FbaA (57–130), wild type (domain or fragment)
chain: NWHHIDKDGLIPLGISLEAAKEEFKKEVEESRLSEAQKETYKQKIKTAPDKDKLLFTYHSEYMTAVKDLPASTE
notes: source: E. coli BL21 (Gold), purified; not shown: His6, N-terminal, kept
With B4, the binding result with factor H (intact) is “binds”.

B5: M5 protein fragment (aa 94–175) (domain or fragment)
chain: NEGLKTEKKEHEAENDKLKQQRDTLSTQKETLEREVQNTQYNNETLKIKNGDLTKELNKTRQELANKQQESKENEKALNELL
notes: as for B2
As to B5, in “crystal structure”, the “stoichiometry N” value turned out to be 2.
